Data on 1 molecule can be found in US20230391892A1 (published 2023).

As usually defined, the Kd is the equilibrium constant for the complex coming apart. Low readings indicate a tighter complex, high ones a looser complex.

Assay [1] has as its target A120 (Homo sapiens (Human), UniProt P0DOX7 1-214). In words: BLI (Octet RED96), antagonist captured on biosensor, ligand in solution. On the procedure: (§1) Binding activities of individual bifunctional antagonists to human ligands were measured by biolayer interferometry (BLI) using Octet RED96 (FortéBIO, Pall Corporation, USA). Binding analysis was performed by first capturing the polypeptide bifunctional antagonists to biosensors. To measure the rate of association and dissociation, the bifunctional antagonists-captured biosensors were dipped in wells containing different concentrations of ligands (such as TNF-α, TGF-β1 and TGF-β3) diluted in 1× kinetic buffer for 10 min followed by 10-20 min in 1× kinetic buffer. Note that all the ligands tested were recombinantly produced based on their human sequences. The bifunctional polypeptide antagonists-captured sensors were also submerged in wells containing 1×kinetic buffer to allow single reference subtraction in order to compensate for natural dissociation of the captured bifunctional antagonists. The binding sensorgrams were collected using the 8-channel detection mode on the biosensor. Data were acquired and analyzed using the FortéBIO Data acquisition software v11.1 (FortéBIO, Pall Corporation, USA)
For orientation: Biolayer interferometry detects binding as a change in optical thickness at a sensor tip.

The target in assay [2] is A119 (Homo sapiens (Human), UniProt P0DOX7 1-214). Described as above. On the procedure:
as §1

B1: TGF-β3 (ligand)
chain: ALDTNYCFRNLEENCCVRPLYIDFRQDLGWKWVHEPKGYYANFCSGPCPYLRSADTTHSTVLGLYNTLNPEASASPCCVPQDLEPLTILYYVGRTPKVEQLSNMVVKSCKCS
notes: also called Transforming Growth Factor-Beta 3
On to B1, for which the equilibrium dissociation constant (Kd) in assay [1] and in assay [2] was approximately 1 pM each time.
